Holding throughout (assay): BLI
For orientation: BLI is a label-free optical method that tracks binding on a fibre tip over time.

Assay [1] concerns the target T1, SARS-CoV-2 spike ectodomain (UniProt P0DTC2 14-1213).
Assay [2] deals with T1, SARS-CoV-2 spike ectodomain. The source holds these as a separate data set.
Assay [3] has the same target. This is another data set of the same source.

Like-named read-outs stand apart in the source and are kept apart here.

B1: Fab 494 (Fab, V domains shown)
VH: EVQLVESGGGLVQPGGSLRLSCAASGFTVSSNYMSWVRQAPGKGLEWVSVIYSGGSTFYADSVKGRFTISRDNSKNTLYLQMNSLRAEDTAVYYCARDSGDQLLDYWGQGTLVTVSS
VL: DIQLTQSPSFLSASVGDRVTITCRASQGISSYLAWYQQKPGKAPKLLIYAASTLQSGVPSRFSGSGSGTEFTLTISSLQPEDFATYYCQQLNSYPPFTFGPGTKVDIKR
The Kd is the constant that tells how readily two partners part at equilibrium. Consider B1, for which the Kd in assay [1] was found to be 5.9 nM.

B2: Fab 483 (Fab, V domains shown)
VH: QVQLQESGPGLVKPSETLSLTCTVSGGSISSYYWSWIRQPPGKGLEWIGYIYYSGSTNYNPSLKSRVTISVDTSKNQFSLKLSSVTAADTAVYYCARAPEEKSSEIGELVGWGWFDPWGQGTLVTVSS
VL: not shown
For the molecule B2, the Kd in assay [2] came out at 23.1 nM.

B3: Fab 419 (Fab, V domains shown)
VH: QVQLVQSGAEVKKPGASVKVSCKASGYTFTSYYMHWVRQAPGQGLEWMGIINPSGGSTSYAQKFQGRVTMTRDTSTSTVYMELSSLRSEDTAVYYCARDWTQSSGYDYYYGLDVWGQGTTVTVSS
VL: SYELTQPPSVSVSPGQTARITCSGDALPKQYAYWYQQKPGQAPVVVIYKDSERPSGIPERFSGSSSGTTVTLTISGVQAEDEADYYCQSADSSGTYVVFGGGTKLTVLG
In the case of B3, in assay [3], the Kd came out at 365 nM.
